Laboratory results: publication PMC4643364 (Cancer cell, 2015)

Biological target: T1, EphB4 labelled with NT-647 dye (UniProt P54760 16-539, NT-647 dye through primary amide coupling)
T1 sequence (looked up): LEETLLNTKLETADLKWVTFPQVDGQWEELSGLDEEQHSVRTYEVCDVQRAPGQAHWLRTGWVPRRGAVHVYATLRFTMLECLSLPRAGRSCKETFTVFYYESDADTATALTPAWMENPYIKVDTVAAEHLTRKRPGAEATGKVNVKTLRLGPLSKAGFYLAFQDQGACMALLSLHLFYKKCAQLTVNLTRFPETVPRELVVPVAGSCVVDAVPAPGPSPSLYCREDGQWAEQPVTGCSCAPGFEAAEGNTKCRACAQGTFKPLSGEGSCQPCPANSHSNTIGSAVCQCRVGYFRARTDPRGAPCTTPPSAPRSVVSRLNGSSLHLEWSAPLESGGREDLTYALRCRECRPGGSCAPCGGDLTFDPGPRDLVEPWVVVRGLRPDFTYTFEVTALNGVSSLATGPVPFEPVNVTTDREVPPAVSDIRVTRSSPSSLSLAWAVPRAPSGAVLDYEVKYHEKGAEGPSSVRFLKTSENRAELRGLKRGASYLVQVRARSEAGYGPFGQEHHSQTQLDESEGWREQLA
Test: MST

B1: EphrinB2/Fc, purified recombinant protein (Fc fusion, UniProt P52799 28-229, looked up)
chain: IVLEPIYWNSSNSKFLPGQGLVLYPQIGDKLDIICPKVDSKTVGQYEYYKVYMVDKDQADRCTIKKENTPLLNCAKPDQDIKFTIKFQEFSPNLWGLEFQKNKDYYIISTSNGSLEGLDNQEGGVCQTRAMKILMKVGQDASSAGSTRNKDPTRRPELEAGTNGRSSTTSPFVKPNPGSSTDGNSAGHSGNNILGSEVALFA
With B1 as the binder, how does the Kd read?
Its Kd is 140 nM.
